According to patent US20230375530A1, “HUMAN BLOOD-BRAIN BARRIER MODEL FOR IMMUNOLOGICAL STUDIES” (WISCONSIN ALUMNI RESEARCH FOUNDATION, priority 2020, published 2023):

Columns and labels:
[1] = system: UMM- and DMM-differentiated BMEC-like cells
Description: Unconditioned medium method (UMM) (14, 16) and defined medium method (DMM) (17) were slightly modified and used to differentiate brain microvascular endothelial-like cells (BMEC-like cells). In brief, hiPSCs were seeded onto a Matrigel-coated plate in mTeSR1 supplemented with 10 μM ROCK inhibitor Y-27632 (Selleckchem, Houston, TX, USA) for 24 hours (day −3 or day −4). […] At day 0, cells were induced to differentiate using specific medium for each method: For UMM, medium was switched to unconditioned medium (DMEM/F12 with 20% Knockout serum replacement, 1× non-essential amino acids, 0.5× Glutamax, and 0.1 mM β-mercaptoethanol) and changed every day for 6 days. For DMM, medium was switched to DeSR1 (DMEM/F12 with 1× non-essential amino acids, 0.5× Glutamax, and 0.1 mM β-mercaptoethanol) supplemented with 6 μM CHIR99021 (Selleckchem, Houston, TX, USA) and cultured for 24 hours. […]
(§1) Permeability of EC monolayers was assessed by measuring the clearance of sodium fluorescein (NaFl, 376.3 Da, Sigma-Aldrich) as previously described (16). […] Medium samples containing fluorescent tracer that had diffused across the monolayers were collected from the bottom well every 15 min for a total of 60 min, and fluorescence intensity was measured in a Tecan Infinite M1000 multi-well reader (Tecan Trading AG, Männedorf, Switzerland). […]

[2] = system: EECM-BMEC-like cell monolayers; type: in vitro ADME, human
Description: EPCs purified as described above were plated on collagen IV (10 μg/ml)-coated plates in hECSR medium in the presence of 5 μM ROCK inhibitor Y-27632 of 10′000-20′000/cm^2 as described before (33). Twenty-four hours later, medium was changed to hECSR without ROCK inhibitor and then medium was changed every 2 days. Once the cells reached 100% confluency (FIG. 3B (i)), the cells were passaged using Accutase (Innovative Cell Technologies, San Diego, CA, USA). In detail, medium was removed and 1 ml of Accutase was added to the 6-well plate and cells were carefully observed under an inverted microscope (Zeiss Axiovert 25). Once endothelial cells started to become round (FIG. 3B (ii)), the endothelial cells were physically detached by tapping the 6-well plate (FIG. 3B (iii)). […] These cell densities were found optimal for achieving closed monolayers. Coating with collagen IV/fibronectin for Transwell filters was chosen as it was previously shown to be optimal for growing primary BMECs and for UMM-BMEC-like cells. […]
Bovine pericytes (15), the human brain pericyte cell line (HBPCT) (34), the human astrocyte cell line (hAST) (35), and hiPSC-derived astrocytes (iPS_AC) (29) were obtained and maintained as previously described. […] Transendothelial electrical resistance (TEER) was measured using a Volt-Ohm-Meter (Millicell ERS-2, MERSSTX01-electrode). […]

[3] = system: hPSC-derived endothelial progenitors (Passage 1 ECs); test: Immunocytochemistry of Passage 1 ECs treated with Wnt ligands, CHIR or conditioned media; type: cell-based, human; conditions: for fraction of GLUT-1+ ECs vs control: Passage 1 ECs, 6 days, Wnt3a 20 ng/mL, Wnt7a 50 ng/mL, Wnt7b 50 ng/mL; for EC purity (proportion of ECs compared to SMLCs): Passage 1 cultures, 6 days treatment
Description: Collagen IV (Sigma-Aldrich) was dissolved in 0.5 mg/mL acetic acid to a final concentration of 1 mg/mL. Collagen IV-coated plates were prepared by diluting a volume of this stock solution 1:100 in water, adding the resulting solution to tissue culture plates, or #1.5 glass bottom plates (Cellvis, Sunnyvale, CA) for cells intended for confocal imaging (1 mL per well for 6-well plates, 0.5 mL per well for 12-well plates, 0.25 mL per well for 24-well plates), and incubating the plates for 1 h at RT. Collagen IV coating solution was removed and EPCs obtained as described above were suspended in hECSR medium and plated at approximately 3×10^4 cells/cm^2. In some experiments, cells were suspended in NR-CM or Astro-CM. In some experiments, ligands and small molecules were added to hECSR medium: CHIR 99021 (Tocris) was used at 4 μM except where indicated; DMSO (Sigma-Aldrich) was used as a vehicle control for CHIR; Wnt3a (R&D Systems) was used at 20 ng/mL; Wnt7a (Peprotech, Rocky Hill, NJ) was used at 50 ng/mL; Wnt7b (Abnova, Tapei, Taiwan) was used at 50 ng/mL; R-spondin 1 (Rspo1; Peprotech) was used at 50 ng/mL; doxycycline was used at 1, 2, or 4 μg/mL. The hECSR medium or CM, including any ligands or small molecules, was replaced every other day until confluent (typically 6 days). We denote this time point “Passage 1.”
Immunocytochemistry was performed in 24-well plates. Cells were washed once with 500 μL DPBS and fixed with 500 μL cold (−20° C.) methanol for 5 min, except cells intended for calponin/SM22a and CD31/Ki67 detection, which were fixed with 500 μL of 4% paraformaldehyde for 15 min. Cells were washed three times with 500 μL DPBS and blocked in 150 μL DPBS supplemented with 10% goat serum (Life Technologies) for 1 h at room temperature, except cells intended for calponin/SM22α detection, which were blocked and permeabilized in DPBS supplemented with 3% BSA and 0.1% Triton X-100, or cells intended for CD31/Ki67 detection, which were blocked and permeabilized in DPBS supplemented with 5% non-fat dry milk and 0.4% Triton X-100. Primary antibodies diluted in 150 μL of the above blocking solutions (see Table 6 for antibody information) were added to cells and incubated overnight at 4° C. on a rocking platform. Cells were washed three times with 500 μL DPBS. Secondary antibodies diluted in 150 μL of the above blocking solutions (see Table 6 for antibody information) were added to cells and incubated for 1 h at room temperature on a rocking platform, protected from light. Cells were washed three times with 500 μL DPBS, followed by 5 min incubation with 500 μL DPBS plus 4 μM Hoechst 33342 (Life Technologies). Images were acquired using an Eclipse Ti2-E epifluorescence microscope (Nikon, Tokyo, Japan) with a 20× objective or an A1R-Si+ confocal microscope (Nikon) with a 100× oil objective. Confocal images were acquired with 1 μm slice spacing.
Images were analyzed using FIJI (ImageJ) software. For epifluorescence images, 5 fields (20×) were analyzed per well, with 3-4 wells per treatment condition. For quantification of cell number, EC colonies were manually outlined, and the Analyze Particles function was used to estimate the number of nuclei within the EC colonies. Nuclei outside the EC colonies were manually counted. EC purity (% EC) was calculated as the number of nuclei within EC colonies relative to total nuclei. To estimate % GLUT-1^+ ECs, cells within the EC colonies with membrane-localized GLUT-1 immunoreactivity (e.g., arrowheads in FIG. 24B) were manually counted. To estimate % Ki67^+ ECs, cells within the EC colonies with at least one nuclear-localized Ki67 punctum were manually counted. For quantification of fluorescence intensity in epifluorescence images, EC colonies were manually outlined, and the Measure function was used to obtain the mean fluorescence intensity for each image channel (fluorophore). A cell-free area of the plate was similarly quantified for background subtraction. […]

Description for hiPSC-derived naïve ECs: CD34^+ CD31^+ endothelial progenitor cells (EPCs) were differentiated from hiPSCs as described (32, 33). In brief, hiPSCs were seeded onto a Matrigel-coated plate in mTeSR1 supplemented with 5 μM ROCK inhibitor Y-27632 for 24 hours (day −3). Seeding densities at day −3 were optimized between 16′000/cm^2 to 132′000/cm^2 depending on donor and passage in order to obtain high number of CD34^+ CD31^+ EPCs. At day 0 and day 1, medium was changed to LaSR basal medium (Advanced DMEM/F12, 2.5 mM GlutaMAX, and 60 μg/ml ascorbic acid) supplemented with 8 μM CHIR99021. At day 2, medium was switched to LaSR basal medium and changed every day for another 3 days. […] Purified EPCs were seeded onto collagen IV/fibronectin-coated Transwell filters at a density of 100′000/cm^2 or collagen-IV (10 μg/ml)-coated culture plates at a density of 10′000-20′000/cm^2 in hECSR medium and used for assay or further extended EC culture.
as §1

| Molecule | fraction of GLUT-1+ ECs vs control [3] | EC purity (proportion of ECs compared to SMLCs) [3] | other results |
| --- | --- | --- | --- |
| O=C([O-])c1ccccc1-c1c2ccc(=O)cc-2oc2cc([O-])ccc12.[Na+].[Na+] [sodium fluorescein] |  |  | permeability to sodium fluorescein [1]: less than 0.6 ×10^−4 cm/min; PeNaFl, permeability to sodium fluorescein (hiPSC-derived naïve ECs): 2-10 ×10^−3 cm/min; lower permeability compared to naïve ECs [2]: ~10 fold |
| Wnt7a: recombinant Wnt ligand (Peprotech) (protein, UniProt O00755 32-349, looked up) Protein Wnt-7a: LGASIICNKIPGLAPRQRAICQSRPDAIIVIGEGSQMGLDECQFQFRNGRWNCSALGERTVFGKELKVGSREAAFTYAIIAAGVAHAITAACTQGNLSDCGCDKEKQGQYHRDEGWKWGGCSADIRYGIGFAKVFVDAREIKQNARTLMNLHNNEAGRKILEENMKLECKCHGVSGSCTTKTCWTTLPQFRELGYVLKDKYNEAVHVEPVRASRNKRPTFLKIKKPLSYRKPMDTDLVYIEKSPNYCEEDPVTGSVGTQGRACNKTAPQASGCDLMCCGRGYNTHQYARVWQCNCKFHWCCYVKCNTCSERTEMYTCK | slightly increased | increased the proportion of ECs |  |
| Rspo1: potentiator of Wnt signaling (protein, UniProt Q2MKA7 21-263, looked up) R-spondin-1: SRGIKGKRQRRISAEGSQACAKGCELCSEVNGCLKCSPKLFILLERNDIRQVGVCLPSCPPGYFDARNPDMNKCIKCKIEHCEACFSHNFCTKCKEGLYLHKGRCYPACPEGSSAANGTMECSSPAQCEMSEWSPWGPCSKKQQLCGFRRGSEERTRRVLHAPVGDHAACSDTKETRRCTVRRVPCPEGQKRRKGGQGRRENANRNLARKESKEAGAGSRRRKGQQQQQQQGTVGPLTSAGPA |  |  | EC purity or expression of GLUT-1, claudin-5 or caveolin-1 ([3]; Rspo1 50 ng/mL in combination with Wnt ligands): did not affect |
| Wnt3a: ligand widely used to activate canonical Wnt/β-catenin signaling (R&D Systems) (protein, UniProt P56704 19-352, looked up) Protein Wnt-3a: SYPIWWSLAVGPQYSSLGSQPILCASIPGLVPKQLRFCRNYVEIMPSVAEGIKIGIQECQHQFRGRRWNCTTVHDSLAIFGPVLDKATRESAFVHAIASAGVAFAVTRSCAEGTAAICGCSSRHQGSPGKGWKWGGCSEDIEFGGMVSREFADARENRPDARSAMNRHNNEAGRQAIASHMHLKCKCHGLSGSCEVKTCWWSQPDFRAIGDFLKDKYDSASEMVVEKHRESRGWVETLRPRYTYFKVPTERDLVYYEASPNFCEPNPETGSFGTRDRTCNVSSHGIDGCDLLCCGRGHNARAERRREKCRCVFHWCCYVSCQECTRVYDVHTCK | significant increase | not Wnt3a |  |
| Wnt7b: recombinant Wnt ligand (Abnova) (protein, UniProt P56706 25-349, looked up) Protein Wnt-7b: ALSSVVALGANIICNKIPGLAPRQRAICQSRPDAIIVIGEGAQMGINECQYQFRFGRWNCSALGEKTVFGQELRVGSREAAFTYAITAAGVAHAVTAACSQGNLSNCGCDREKQGYYNQAEGWKWGGCSADVRYGIDFSRRFVDAREIKKNARRLMNLHNNEAGRKVLEDRMQLECKCHGVSGSCTTKTCWTTLPKFREVGHLLKEKYNAAVQVEVVRASRLRQPTFLRIKQLRSYQKPMETDLVYIEKSPNYCEEDAATGSVGTQGRLCNRTSPGADGCDTMCCGRGYNTHQYTKVWQCNCKFHWCCFVKCNTCSERTEVFTCK | not Wnt7b alone |  |  |
